The text below walks through data of article doi:10.1101/2024.03.29.587195 (bioRxiv, 2024).

This data set deals with the molecule itself. As to the kind of experiment: cryo-EM structure.

Several values for one entry are separate records, joined by “and”; a condition that tells them apart may be missing. Equal entries are not always repeated.

B1: CoaXMtb, untagged, recombinant (cryo-EM sample) (natural protein)
chain: MLLAIDVRNTHTVVGLLSGMKEHAKVVQQWRIRTESEVTADELALTIDGLIGEDSERLTGTAALSTVPSVLHEVRIMLDQYWPSVPHVLIEPGVRTGIPLLVDNPKEVGADRIVNCLAAYDRFRKAAIVVDFGSSICVDVVSAKGEFLGGAIAPGVQVSSDAAAARSAALRRVELARPRSVVGKNTVECMQAGAVFGFAGLVDGLVGRIREDVSGFSVDHDVAIVATGHTAPLLLPELHTVDHYDQHLTLQGLRLVFERNLEVQRGRLKTAR
What is called stoichiometry N is a count of units in the complex or per binding partner. In the case of B1, the “stoichiometry N” value is 6 and 4.
